Assay results published in US20240116985A1, “STAPLED PEPTIDES AND METHODS THEREOF” (priority 2020, published 2024).
Starred links: 1 amine or outer side, 2 acyl side, 3 side chain; linkers in the order of their positions; H or OH if unused. Positions of bridges follow the written chain, without caps; N, C: chain ends. Non-standard residues stand in square brackets, D forms with d. Primed or numbered codes have the meaning given here. PyrS2″ = (S)-3-amino-1-((pent-4-en-1-yloxy)carbonyl)pyrrolidine-3-carboxylic acid (stapling residue), C=CCCCOC(=O)N1CC[C@@](N[*:1])(C(=O)[*:2])C1; B5(4) = 2,2-bis(4-pentenyl)glycine = 2-amino-2-(pent-4-en-1-yl)hept-6-enoic acid (stitching residue), C=CCCCC(CCCC=C)(N[*:1])C(=O)[*:2]; B5(5) = 2,2-bis(4-pentenyl)glycine, 2-amino-2-(pent-4-en-1-yl)hept-6-enoic acid (stitching residue), C=CCCCC(CCCC=C)(N[*:1])C(=O)[*:2]; 5F3Me3COOHF = (S)-3-(2-amino-2-carboxyethyl)-5-(trifluoromethyl)benzoic acid, O=C([C@H](Cc1cc(C(=O)[*:3])cc(C(F)(F)F)c1)N[*:1])[*:2]; PyrS2 = (S)-3-amino-1-((pent-4-en-1-yloxy)carbonyl)pyrrolidine-3-carboxylic acid, C=CCCCOC(=O)N1CC[C@@](N[*:1])(C(=O)[*:2])C1; 4F3COOHF = (S)-5-(2-amino-2-carboxyethyl)-2-fluorobenzoic acid, O=C([C@H](Cc1ccc(F)c(C(=O)[*:3])c1)N[*:1])[*:2]; (CyPr)‑3SF = (S)-2-amino-3-(3-cyclopropylphenyl)propanoic acid, O=C([C@H](Cc1cccc(C2CC2)c1)N[*:1])[*:2]; B5(3) = 2,2-bis(4-pentenyl)glycine (stitching residue), C=CCCCC(CCCC=C)(N[*:1])C(=O)[*:2]; B5 = 2-amino-2-(pent-4-en-1-yl)hept-6-enoic acid, C=CCCCC(CCCC=C)(N[*:1])C(=O)[*:2]; Phe(3-Ph) = N[C@@H](Cc1cccc(-c2ccccc2)c1)C(=O)O; Phe(3-COOH) = N[C@@H](Cc1cccc(C(=O)O)c1)C(=O)O; Trp(5-F) = N[C@@H](Cc1c[nH]c2ccc(F)cc12)C(=O)O; 2F3MeF = Cc1cccc(C[C@H](N[*:1])C(=O)[*:2])c1F; Phe(2-CF3) = N[C@@H](Cc1ccccc1C(F)(F)F)C(=O)O; Trp(1-Me) = Cn1cc(C[C@H](N)C(=O)O)c2ccccc21; Phe(4-Cl) = N[C@@H](Cc1ccc(Cl)cc1)C(=O)O; 1Nal = N[C@@H](Cc1cccc2ccccc12)C(=O)O; Bta = N[C@@H](Cc1csc2ccccc12)C(=O)O; αAllylPro = C=CC[C@@]1(C(=O)O)CCCN1; tBuAla = CC(C)(C)C[C@H](N)C(=O)O; 3Thi = N[C@@H](Cc1ccsc1)C(=O)O; 34ClF = not defined here

Target: Bcat-Halo (UniProt P35222)
Sequence (P35222 whole entry): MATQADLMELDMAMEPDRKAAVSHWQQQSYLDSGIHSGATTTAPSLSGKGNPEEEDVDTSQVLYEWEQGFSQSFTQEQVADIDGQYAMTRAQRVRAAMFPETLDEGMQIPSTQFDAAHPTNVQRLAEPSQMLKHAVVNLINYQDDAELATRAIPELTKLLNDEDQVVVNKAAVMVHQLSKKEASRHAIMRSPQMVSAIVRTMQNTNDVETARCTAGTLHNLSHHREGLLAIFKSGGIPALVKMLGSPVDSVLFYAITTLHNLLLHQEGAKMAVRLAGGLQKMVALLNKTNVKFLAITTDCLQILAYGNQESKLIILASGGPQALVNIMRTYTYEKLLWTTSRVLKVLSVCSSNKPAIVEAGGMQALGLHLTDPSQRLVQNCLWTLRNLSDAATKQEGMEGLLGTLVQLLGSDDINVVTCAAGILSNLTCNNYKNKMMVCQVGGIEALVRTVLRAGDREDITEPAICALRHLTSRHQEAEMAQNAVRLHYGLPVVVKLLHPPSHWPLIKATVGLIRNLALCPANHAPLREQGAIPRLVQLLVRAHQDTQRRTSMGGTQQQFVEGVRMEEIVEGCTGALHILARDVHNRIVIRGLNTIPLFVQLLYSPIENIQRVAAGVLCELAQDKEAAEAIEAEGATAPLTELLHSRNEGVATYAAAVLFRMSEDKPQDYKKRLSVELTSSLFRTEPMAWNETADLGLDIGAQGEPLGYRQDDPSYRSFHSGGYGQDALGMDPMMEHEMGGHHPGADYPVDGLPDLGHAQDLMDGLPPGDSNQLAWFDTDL
Assay: NanoBRET Abs IC50, Bcat-Halo/TCF4-Luc in HEK293 cells

IC50	Binder
12900 nM	Ac-[αAllylPro]D[tBuAla][B5(5)]D[5F3Me3COOHF]QAFL[PyrS2][3Thi][Bta]A-NH2 (staple 1-4, 4-11) [I-2211]
3400 nM	Ac-[αAllylPro]D[tBuAla][B5(3)]D[Phe(3-COOH)]AAFL[PyrS2″][3Thi][34ClF]Q-NH2 (staple 1-4, 4-11; reading uncertain) [I-2216]
2700 nM	Ac-[αAllylPro]D[tBuAla][B5(3)]D[Phe(3-COOH)]QAFL[PyrS2″][2F3MeF][34ClF]A-NH2 (staple 1-4, 4-11; reading uncertain) [I-2219]
16300 nM	Ac-[αAllylPro]D[tBuAla][B5(3)]D[Phe(3-COOH)]AAFL[PyrS2″][3Thi][Phe(4-Cl)]Q-NH2 (staple 1-4, 4-11) [I-2220]
7100 nM	Ac-[αAllylPro]D[tBuAla][B5(5)]D[4F3COOHF]QAFL[PyrS2][3Thi][Bta]A-NH2 (staple 1-4, 4-11) [I-2206]
5100 nM	Ac-[αAllylPro]D[tBuAla][B5(3)]D[Phe(3-COOH)]AAFL[PyrS2″][2F3MeF][34ClF]S-NH2 (staple 1-4, 4-11; reading uncertain) [I-2218]

Target: full-length beta-Catenin (Uniprot ID P35222) (Homo sapiens (Human)) (UniProt P35222)
Assay: fluorescence polarization competition; 10 nM full-length beta-catenin + 10 nM 5FAM-TCF4(10-53), peptide titrated
Target sequence in this assay (P35222 whole entry, one chain of several): as the sequence (P35222 whole entry) above

IC50	Binder
78 nM	Ac-[αAllylPro]D[tBuAla][B5(4)]D[Phe(3-COOH)]AAFF[PyrS2″][2F3MeF][Bta][dA]-NH2 (staple 1-4, 4-11) [I-2095]
43 nM	Ac-[αAllylPro]D[tBuAla][B5(4)]D[Phe(3-COOH)]AAFF[PyrS2″][Phe(2-CF3)][Bta][dQ]-NH2 (staple 1-4, 4-11) [I-2093]

Target: full-length beta-Catenin (Uniprot ID P35222) (Homo sapiens (Human)) (UniProt P35222)
Assay: fluorescence polarization competition; full-length beta-catenin + 5FAM-TCF4(10-53) probe as competitor
Target sequence in this assay (P35222 2-781 limits assumed): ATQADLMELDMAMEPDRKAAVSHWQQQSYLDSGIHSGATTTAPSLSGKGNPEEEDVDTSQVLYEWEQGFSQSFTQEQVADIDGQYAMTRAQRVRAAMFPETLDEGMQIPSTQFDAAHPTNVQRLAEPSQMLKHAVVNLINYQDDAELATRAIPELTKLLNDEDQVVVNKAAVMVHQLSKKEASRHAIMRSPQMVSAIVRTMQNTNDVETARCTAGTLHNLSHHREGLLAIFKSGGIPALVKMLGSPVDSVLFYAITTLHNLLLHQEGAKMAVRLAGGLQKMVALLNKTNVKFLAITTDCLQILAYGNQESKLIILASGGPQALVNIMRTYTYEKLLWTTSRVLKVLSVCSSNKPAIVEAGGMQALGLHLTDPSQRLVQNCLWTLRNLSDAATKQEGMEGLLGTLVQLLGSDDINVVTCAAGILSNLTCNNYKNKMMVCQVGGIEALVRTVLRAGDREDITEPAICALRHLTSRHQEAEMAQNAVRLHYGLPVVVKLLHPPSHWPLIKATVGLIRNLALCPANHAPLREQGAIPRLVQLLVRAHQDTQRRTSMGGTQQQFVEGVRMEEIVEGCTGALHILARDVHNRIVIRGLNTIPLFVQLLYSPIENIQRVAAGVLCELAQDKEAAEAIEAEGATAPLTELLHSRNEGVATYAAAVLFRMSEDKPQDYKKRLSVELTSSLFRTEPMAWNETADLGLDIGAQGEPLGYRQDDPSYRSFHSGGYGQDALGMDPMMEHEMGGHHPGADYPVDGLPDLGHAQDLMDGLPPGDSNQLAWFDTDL

EC50	Binder
9 nM	Ac-[αAllylPro]D[tBuAla][B5(3)]DDAAFS[PyrS2″]F[Bta]S-NH2 (staple 1-4, 4-11) [I-1099]

Target: full-length beta-Catenin (Uniprot ID P35222) (Homo sapiens (Human)) (UniProt P35222)
Assay: fluorescence polarization competition against 5FAM-TCF4 10-53
Target sequence in this assay (P35222 whole entry, one chain of several): as the sequence (P35222 whole entry) above

IC50	Binder
23 nM	Ac-[αAllylPro]D[tBuAla][B5(5)]D[5F3Me3COOHF]QAFL[PyrS2][3Thi][Bta]A-NH2 (staple 1-4, 4-11) [I-2211]
7 nM	Ac-[αAllylPro]D[tBuAla][B5(3)]D[Phe(3-COOH)]AAFL[PyrS2″][3Thi][34ClF]Q-NH2 (staple 1-4, 4-11; reading uncertain) [I-2216]
1860 nM	Ac-[αAllylPro]D[tBuAla][B5(3)]D[Phe(3-COOH)]AAFL[PyrS2″][Phe(3-Ph)]FQ-NH2 (staple 1-4, 4-11) [I-2214]
21 nM	Ac-[αAllylPro]D[tBuAla][B5(3)]D[Phe(3-COOH)]QAFL[PyrS2″][2F3MeF][34ClF]A-NH2 (staple 1-4, 4-11; reading uncertain) [I-2219]
12 nM	Ac-[αAllylPro]D[tBuAla][B5(3)]D[Phe(3-COOH)]AAFL[PyrS2″][3Thi][Phe(4-Cl)]Q-NH2 (staple 1-4, 4-11) [I-2220]
1540 nM	Ac-[αAllylPro]D[tBuAla][B5(3)]D[Phe(3-COOH)]AAFL[PyrS2″][(CyPr)‑3SF]FQ-NH2 (staple 1-4, 4-11) [I-2215]
7 nM	Ac-[αAllylPro]D[tBuAla][B5(5)]D[4F3COOHF]QAFL[PyrS2][3Thi][Bta]A-NH2 (staple 1-4, 4-11) [I-2206]
34 nM	Ac-[αAllylPro]D[tBuAla][B5(3)]D[Phe(3-COOH)]AAFL[PyrS2″][2F3MeF][34ClF]S-NH2 (staple 1-4, 4-11; reading uncertain) [I-2218]

Target: full-length beta-Catenin (Uniprot ID P35222) (Homo sapiens (Human)) (UniProt P35222)
Assay: fluorescence polarization competition; 10 nM full-length beta-catenin with 10 nM 5FAM-TCF4(10-53) probe as competitor
Target sequence in this assay (P35222 2-781 limits assumed): as the sequence (P35222 2-781 limits assumed) above

IC50	Binder
92 nM	Ac-[αAllylPro]D[tBuAla][B5]DDAAFN[PyrS2][3Thi][Trp(1-Me)]H-NH2 (staple 1-4, 4-11) [I-799]
79 nM	Ac-[αAllylPro]D[tBuAla][B5]DDAAFN[PyrS2][3Thi][Trp(5-F)]H-NH2 (staple 1-4, 4-11) [I-800]

Target: Bcat-Halo (UniProt P35222)
Assay: NanoBRET Abs IC50 in HEK293 cells; Bcat-Halo with TCF4-Luc as competitor

IC50	Binder
9000 nM	Ac-[αAllylPro]D[tBuAla][B5(3)]DDAAFS[PyrS2″]F[Bta]S-NH2 (staple 1-4, 4-11) [I-1099]

Target: full-length beta-Catenin (Uniprot ID P35222) (Homo sapiens (Human)) (UniProt P35222)
Assay: fluorescence polarization competition: peptide titrated against 10 nM full-length beta-catenin + 10 nM 5FAM-TCF4(10-53) probe
Target sequence in this assay (P35222 2-781 limits assumed): as above

EC50	Binder
92 nM	Ac-[αAllylPro]D[tBuAla][B5]DDAAFN[PyrS2][3Thi][Trp(1-Me)]H-NH2 (staple 1-4, 4-11) [I-799]
79 nM	Ac-[αAllylPro]D[tBuAla][B5]DDAAFN[PyrS2][3Thi][Trp(5-F)]H-NH2 (staple 1-4, 4-11) [I-800]
6 nM	Ac-[αAllylPro]D[tBuAla][B5(5)]DDAAFN[PyrS2][3Thi][Bta]-NH2 (staple 1-4, 4-11) [I-785]
19 nM	Ac-[αAllylPro]D[tBuAla][B5(5)]DDAAFN[PyrS2][3Thi][1Nal]H-NH2 (staple 1-4, 4-11) [I-789]

Target: full-length beta-Catenin (Uniprot ID P35222) (Homo sapiens (Human)) (UniProt P35222)
Assay: fluorescence polarization competition; displacement of 5FAM-TCF4(10-53) from full-length beta-catenin
Target sequence in this assay (P35222 whole entry, one chain of several): as the sequence (P35222 whole entry) above

IC50	Binder
9 nM	Ac-[αAllylPro]D[tBuAla][B5(3)]DDAAFS[PyrS2″]F[Bta]S-NH2 (staple 1-4, 4-11) [I-1099]

Target: full-length beta-Catenin (Uniprot ID P35222) (Homo sapiens (Human)) (UniProt P35222)
Assay: fluorescence polarization competition; peptide displaces 5FAM-TCF4(10-53) from full-length beta-catenin
Target sequence in this assay (P35222 2-781 limits assumed): as the sequence (P35222 2-781 limits assumed) above

IC50	Binder
6 nM	Ac-[αAllylPro]D[tBuAla][B5(5)]DDAAFN[PyrS2][3Thi][Bta]-NH2 (staple 1-4, 4-11) [I-785]
19 nM	Ac-[αAllylPro]D[tBuAla][B5(5)]DDAAFN[PyrS2][3Thi][1Nal]H-NH2 (staple 1-4, 4-11) [I-789]

Target: B-cat-Halo (beta-catenin HaloTag NanoBRET construct expressed in HEK293 cells) (UniProt P35222)
Sequence (P35222 whole entry): as the sequence (P35222 whole entry) above
Assay: NanoBRET in HEK293 cells, Bcat-Halo + TCF4-Luc, peptide at 10 uM

NanoBRET % inh @ 10 uM	Binder
0.9%	Ac-[αAllylPro]D[tBuAla][B5]DDAAFN[PyrS2][3Thi][Trp(1-Me)]H-NH2 (staple 1-4, 4-11) [I-799]
8.1%	Ac-[αAllylPro]D[tBuAla][B5]DDAAFN[PyrS2][3Thi][Trp(5-F)]H-NH2 (staple 1-4, 4-11) [I-800]
31%	Ac-[αAllylPro]D[tBuAla][B5(5)]DDAAFN[PyrS2][3Thi][Bta]-NH2 (staple 1-4, 4-11) [I-785]
9.7%	Ac-[αAllylPro]D[tBuAla][B5(5)]DDAAFN[PyrS2][3Thi][1Nal]H-NH2 (staple 1-4, 4-11) [I-789]
